Test results: patent US7122382 (RIKEN, dated 2006)
Read-outs that look alike come from different tables or passages of the source.

B1: MB20 protein (function unknown, 2-10F) (other, mouse, UniProt Q794H2 1-544, looked up)
chain: MAEADPKMVTEPGAHGVAEEAMASTACDSGDESDSNSSSSTNSCSSSGSSSSGSSSSSSSSSSSSSSSSSSSSGSSGSSSNGSHLNRKKRVPEPSRRAQRRPSGKLFLDKLPQAVRNRVQALRNIQNECDKVDTLFLRAIHDLERKYAELNKPLYDKRFQIINAEYEPTEEECEWNSEEEFSGDEEMQDDTPNEMPPLEGEEEEESCNEKAEVKEEGTHVPEEVPEAKVEEEEAPKETPEVKTEEKDIPKEGAEEKAEEQESSKEIPEVKGEEKADSTDCIDIAPEEKEDVKEVTQANTENKDQPTEEFTPRAPAREAQKRVPETRPEEGVNIKRARKGKPKKEDPKGIPDYWLTVLKNVDKLGPMIQKCDEPILKFLSDVSLKFSNPGQPIGYTFEFHFLPNPYFRNELLMKTYIIRSKPDHYDPFFAWGWEIEECKGCKIDWRRGKDVTVTTTRSRPGITGEIEVQPRVVPNASFFNFFSPPEIPLIGKLEPREDAILDEDFEIGQILHDNVILKSIYYFTGEINDPYYHDFRDYGNRKYYK
modifications: 35S-methionine label or biotinylated lysine, by its role in the assay
notes: also called NAP1-like protein L3
B2: Fos (other, UniProt P01101 1-380, looked up)
chain: MMFSGFNADYEASSSRCSSASPAGDSLSYYHSPADSFSSMGSPVNTQDFCADLSVSSANFIPTVTAISTSPDLQWLVQPTLVSSVAPSQTRAPHPYGLPTQSAGAYARAGMVKTVSGGRAQSIGRRGKVEQLSPEEEEKRRIRRERNKMAAAKCRNRRRELTDTLQAETDQLEDEKSALQTEIANLLKEKEKLEFILAAHRPACKIPDDLGFPEEMSVASLDLTGGLPEASTPESEEAFTLPLLNDPEPKPSLEPVKSISNVELKAEPFDDFLFPASSRPSGSETSRSVPDVDLSGSFYAADWEPLHSNSLGMGPMVTELEPLCTPVVTCTPGCTTYTSSFVFTYPEADSFPSCAAAHRKGSSSNEPSSDSLSSPTLLAL
modifications: 35S-methionine label or biotinylated lysine, by its role in the assay
notes: Crude translation mix, not purified
B3: Caspase 6 (1-9E) (enzyme, mouse, UniProt O08738 1-276, looked up)
chain: MTETDGFYKSREVFDPAEQYKMDHKRRGVALIFNHERFFWHLTLPERRGTNADRDNLTRRFSDLGFEVKCFNDLRAEELLLKIHEVSTSSHIDADCFICVFLSHGEGNHVYAYDAKIEIQTLTGLFKGDKCQSLVGKPKIFIIQACRGSQHDVPVVPLDMVDHQTDKLDNVTQVDAASVYTLPAGADFLMCYSVAEGYYSHRETVNGSWYIQDLCEMLARYGSSLEFTELLTLVNRKVSQRRVDFCKDPDAIGKKQVPCFASMLTKKLHFCPKPSK
modifications: 35S-methionine label or biotinylated lysine, by its role in the assay
B4: Jun (other, UniProt P05627 1-334, looked up)
chain: MTAKMETTFYDDALNASFLQSESGAYGYSNPKILKQSMTLNLADPVGSLKPHLRAKNSDLLTSPDVGLLKLASPELERLIIQSSNGHITTTPTPTQFLCPKNVTDEQEGFAEGFVRALAELHSQNTLPSVTSAAQPVSGAGMVAPAVASVAGAGGGGGYSASLHSEPPVYANLSNFNPGALSSGGGAPSYGAAGLAFPSQPQQQQQPPQPPHHLPQQIPVQHPRLQALKEEPQTVPEMPGETPPLSPIDMESQERIKAERKRMRNRIAASKCRKRKLERIARLEEKVKTLKAQNSELASTANMLREQVAQLKQKVMNHVNSGCQLMLTQQLQTF
modifications: 35S-methionine label or biotinylated lysine, by its role in the assay
B5: p53 (other, UniProt P02340 1-390, looked up)
chain: MTAMEESQSDISLELPLSQETFSGLWKLLPPEDILPSPHCMDDLLLPQDVEEFFEGPSEALRVSGAPAAQDPVTETPGPVAPAPATPWPLSSFVPSQKTYQGNYGFHLGFLQSGTAKSVMCTYSPPLNKLFCQLAKTCPVQLWVSATPPAGSRVRAMAIYKKSQHMTEVVRRCPHHERCSDGDGLAPPQHLIRVEGNLYPEYLEDRQTFRHSVVVPYEPPEAGSEYTTIHYKYMCNSSCMGGMNRRPILTIITLEDSSGNLLGRDSFEVRVCACPGRDRRTEEENFRKKEVLCPELPPGSAKRALPTCTSASPPQKKKPLDGEYFTLKIRGRKRFEMFRELNEALELKDAHATEESGDSRAHSSYLKTKKGQSTSRHKKTMVKKVGPDSD
modifications: 35S-methionine label or biotinylated lysine, by its role in the assay

Assays:
[1] = target: 2-1E (mouse); experiment: single proteins, rows taken as 35S-labelled and columns as biotinylated, streptavidin beads
[2] = target: 2-1F (mouse); experiment: as above
[3] = target: 2-1G (mouse); experiment: as above
[4] = target: T1, Bpx protein (nucleosome assembly protein homologue) (2-1H) (mouse, UniProt P51860 1-460, limits assumed, 35S-methionine label or biotinylated lysine, by its role in the assay); experiment: as above
T1 construct: also called NAP 1-like protein L2
T1 sequence (looked up): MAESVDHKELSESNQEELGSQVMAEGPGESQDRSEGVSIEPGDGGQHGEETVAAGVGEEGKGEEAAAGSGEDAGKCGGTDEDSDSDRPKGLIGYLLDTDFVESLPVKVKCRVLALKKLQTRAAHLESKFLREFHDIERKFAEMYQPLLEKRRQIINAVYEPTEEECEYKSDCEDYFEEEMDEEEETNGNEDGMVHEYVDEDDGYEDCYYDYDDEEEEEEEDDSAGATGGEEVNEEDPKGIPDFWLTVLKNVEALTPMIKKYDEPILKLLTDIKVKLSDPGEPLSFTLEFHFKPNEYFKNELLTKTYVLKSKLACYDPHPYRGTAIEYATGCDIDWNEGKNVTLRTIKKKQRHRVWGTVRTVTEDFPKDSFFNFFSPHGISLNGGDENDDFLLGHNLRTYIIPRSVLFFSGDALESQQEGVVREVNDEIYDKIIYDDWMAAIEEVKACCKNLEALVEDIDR

[5] = target: 2-10G (mouse); experiment: as above
[6] = target: 2-10H (mouse); experiment: as above
[7] = target: DnaJ-like protein (Hsj2) (2-10E) (mouse, UniProt P63037 1-397, 35S-methionine label or biotinylated lysine, by its role in the assay); experiment: as above
[8] = target: the molecule itself; experiment: as above
[9] = target: B4; experiment: biotinylated row protein on streptavidin beads, 35S column protein counted
[10] = target: luciferase (UniProt P08659 1-550 = luciferase, 35S-methionine label or biotinylated lysine, by its role in the assay); experiment: as above
luciferase, sequence (P08659 whole entry): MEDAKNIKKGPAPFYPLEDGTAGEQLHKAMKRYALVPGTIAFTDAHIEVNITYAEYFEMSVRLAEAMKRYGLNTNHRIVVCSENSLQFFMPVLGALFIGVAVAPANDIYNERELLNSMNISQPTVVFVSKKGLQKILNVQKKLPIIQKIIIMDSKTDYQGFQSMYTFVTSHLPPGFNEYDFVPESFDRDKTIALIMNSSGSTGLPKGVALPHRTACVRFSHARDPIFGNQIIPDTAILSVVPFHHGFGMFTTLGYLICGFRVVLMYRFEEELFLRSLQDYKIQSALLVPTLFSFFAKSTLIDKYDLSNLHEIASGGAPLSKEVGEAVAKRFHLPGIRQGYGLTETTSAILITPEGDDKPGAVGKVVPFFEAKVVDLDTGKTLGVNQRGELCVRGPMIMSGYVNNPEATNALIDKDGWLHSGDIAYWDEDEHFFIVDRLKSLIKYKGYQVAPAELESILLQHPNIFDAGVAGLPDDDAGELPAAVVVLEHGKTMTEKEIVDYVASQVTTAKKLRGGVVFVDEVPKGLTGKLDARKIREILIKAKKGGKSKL

[11] = target: SV40 large T (SV40, UniProt P03070 1-708); experiment: as above
[12] = target: B5; experiment: as above
[13] = target: the molecule itself; experiment: as above
[14] = target: 1-9F (mouse); experiment: single proteins, rows taken as 35S-labelled and columns as biotinylated, streptavidin beads
[15] = target: 1-9G (mouse); experiment: as above
[16] = target: 1-9H (mouse); experiment: as above
[17] = target: the molecule itself; experiment: as above; remark: listed apart in the source
[18] = target: B2; experiment: biotinylated row protein on streptavidin beads, 35S column protein counted

Row | Binder | RI (c.p.m.) [9] | RI (c.p.m.) [10] | RI (c.p.m.) [11] | RI (c.p.m.) [12] | RI (c.p.m.) [13] | RI (c.p.m.) [18] | also measured
1 | B1 |  |  |  |  |  |  | RI (cpm) [1]: 60 cpm; RI (cpm) [2]: 60 cpm; RI (cpm) [3]: 72 cpm; RI (cpm) [4]: 736 cpm; RI (cpm) [5]: 67 cpm; RI (cpm) [6]: 98 cpm; RI (cpm) [7]: 87 cpm; RI (cpm) [8]: 168 cpm
2 | B2 | 675 c.p.m. | 172 c.p.m. | 156 c.p.m. | 169 c.p.m. | 177 c.p.m. |  | 
3 | B3 |  |  |  |  |  |  | RI (cpm) [14]: 32 cpm; RI (cpm) [15]: 36 cpm; RI (cpm) [16]: 37 cpm; RI (cpm) [17]: 225 cpm
4 | B4 |  | 131 c.p.m. | 176 c.p.m. | 187 c.p.m. | 204 c.p.m. | 707 c.p.m. | 
5 | B5 | 206 c.p.m. | 154 c.p.m. |  |  |  | 232 c.p.m. | 
